target: T1, human PD-L1-Fc (R&D Systems) (human, UniProt Q9NZQ7 19-239); experiment: soluble Affimer ELISA
T1 construct: Bought from R&D Systems; Biotinylated in-house for the phage selection; also called huPD-L1-Fc; human PD-L1-Fc antigen; not shown: Fc part of the bought fusion
T1 sequence (Q9NZQ7 19-239 limits assumed): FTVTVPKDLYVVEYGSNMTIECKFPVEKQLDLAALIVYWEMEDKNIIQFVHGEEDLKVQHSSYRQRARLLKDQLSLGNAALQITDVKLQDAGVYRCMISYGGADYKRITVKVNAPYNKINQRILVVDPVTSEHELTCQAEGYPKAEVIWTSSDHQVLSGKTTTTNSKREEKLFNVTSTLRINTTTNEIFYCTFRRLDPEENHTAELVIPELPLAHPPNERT

Row | Binder | binding result
1 | Clone 209 (designed binder, His-tagged) MIPGGLSEAKPATPEIQEIVDKVKPQLEEKTGETYGKLEAVQYKTQVVIAKEENHWRGTNYYIKVRAGDNKYMHLKVFKSLHYYQDVLYREDLVLTGYQVDKNKDDELTGF | binds
2 | Clone 21 (designed binder, His-tagged) MIPGGLSEAKPATPEIQEIVDKVKPQLEEKTGETYGKLEAVQYKTQVVKRPHFLQFSGTNYYIKVRAGDNKYMHLKVFKSLNIGPAKKQLEDLVLTGYQVDKNKDDELTGF | binds
3 | Clone 204 (designed binder, His-tagged) MIPGGLSEAKPATPEIQEIVDKVKPQLEEKTGETYGKLEAVQYKTQVVSLRPHEQLYGTNYYIKVRAGDNKYMHLKVFKSLHLKLWKIPNEDLVLTGYQVDKNKDDELTGF | binds
4 | Clone 182 (designed binder, His-tagged) MIPGGLSEAKPATPEIQEIVDKVKPQLEEKTGETYGKLEAVQYKTQVVLKTNPSPSDGTNYYIKVRAGDNKYMHLKVFKSLAVFRQRLGVEDLVLTGYQVDKNKDDELTGF | binds
5 | Clone 79 (designed binder, His-tagged) MIPGGLSEAKPATPEIQEIVDKVKPQLEEKTGETYGKLEAVQYKTQVVIWHSEWSYTGTNYYIKVRAGDNKYMHLKVFKSLFTRHSEPWEEDLVLTGYQVDKNKDDELTGF | binds
6 | Clone 202 (designed binder, His-tagged) MIPGGLSEAKPATPEIQEIVDKVKPQLEEKTGETYGKLEAVQYKTQVVIRHVIWSYSGTNYYIKVRAGDNKYMHLKVFKSLWERNASLSEEDLVLTGYQVDKNKDDELTGF | binds
7 | Clone 34 (designed binder, His-tagged) MIPGGLSEAKPATPEIQEIVDKVKPQLEEKTGETYGKLEAVQYKTQVVTHLNNNAWTGTNYYIKVRAGDNKYMHLKVFKSLFFHNGKIYREDLVLTGYQVDKNKDDELTGF | binds
8 | Clone 203 (designed binder, His-tagged) MIPGGLSEAKPATPEIQEIVDKVKPQLEEKTGETYGKLEAVQYKTQVVYHGPPKEWLGTNYYIKVRAGDNKYMHLKVFKSLFFWKGNGYREDLVLTGYQVDKNKDDELTGF | binds
9 | Clone 215 (designed binder, His-tagged) MIPGGLSEAKPATPEIQEIVDKVKPQLEEKTGETYGKLEAVQYKTQVVRRVFFPEFPGTNYYIKVRAGDNKYMHLKVFKSLEQPIEGDLWEDLVLTGYQVDKNKDDELTGF | binds
10 | Clone 2 (designed binder, His-tagged) MIPGGLSEAKPATPEIQEIVDKVKPQLEEKTGETYGKLEAVQYKTQVVASFIDIGWHGTNYYIKVRAGDNKYMHLKVFKSLREGKHGRNKEDLVLTGYQVDKNKDDELTGF | binds
11 | Clone 36 (designed binder, His-tagged) MIPGGLSEAKPATPEIQEIVDKVKPQLEEKTGETYGKLEAVQYKTQVVWSFAQVGWHGTNYYIKVRAGDNKYMHLKVFKSLRRFEHLPFYEDLVLTGYQVDKNKDDELTGF | binds
12 | Clone 183 (designed binder, His-tagged) MIPGGLSEAKPATPEIQEIVDKVKPQLEEKTGETYGKLEAVQYKTQVVRQTDSVKWWGTNYYIKVRAGDNKYMHLKVFKSLWYNRYYNDFEDLVLTGYQVDKNKDDELTGF | binds
13 | Clone 197 (designed binder, His-tagged) MIPGGLSEAKPATPEIQEIVDKVKPQLEEKTGETYGKLEAVQYKTQVVWKPQDSVNWGTNYYIKVRAGDNKYMHLKVFKSLDWDGAAGDAEDLVLTGYQVDKNKDDELTGF | binds
14 | Clone 20 (designed binder, His-tagged) MIPGGLSEAKPATPEIQEIVDKVKPQLEEKTGETYGKLEAVQYKTQVVANSKWHYAFGTNYYIKVRAGDNKYMHLKVFKSLDNAIYRGPTEDLVLTGYQVDKNKDDELTGF | binds
15 | Clone 181 (designed binder, His-tagged) MIPGGLSEAKPATPEIQEIVDKVKPQLEEKTGETYGKLEAVQYKTQVVKAYKVFNYIGTNYYIKVRAGDNKYMHLKVFKSLFKWDNGISDEDLVLTGYQVDKNKDDELTGF | binds
16 | Clone 217 (designed binder, His-tagged) MIPGGLSEAKPATPEIQEIVDKVKPQLEEKTGETYGKLEAVQYKTQVVKKYVIFFYEGTNYYIKVRAGDNKYMHLKVFKSLFVNKGGSDDEDLVLTGYQVDKNKDDELTGF | binds
17 | Clone 213 (designed binder, His-tagged) MIPGGLSEAKPATPEIQEIVDKVKPQLEEKTGETYGKLEAVQYKTQVVKQHTKEWAPGTNYYIKVRAGDNKYMHLKVFKSLWNHLYHYPFEDLVLTGYQVDKNKDDELTGF | binds
18 | Clone 187 (designed binder, His-tagged) MIPGGLSEAKPATPEIQEIVDKVKPQLEEKTGETYGKLEAVQYKTQVVIQDWTVGWEGTNYYIKVRAGDNKYMHLKVFKSLRIGRSTNLWEDLVLTGYQVDKNKDDELTGF | binds

Results, then the binder that gave them:

Row | binding result | Binder
19 | binds | Clone 212 (designed binder, His-tagged) MIPGGLSEAKPATPEIQEIVDKVKPQLEEKTGETYGKLEAVQYKTQVVYAFITPVTHGTNYYIKVRAGDNKYMHLKVFKSLWLNNFGKNFEDLVLTGYQVDKNKDDELTGF
20 | binds | Clone 211 (designed binder, His-tagged) MIPGGLSEAKPATPEIQEIVDKVKPQLEEKTGETYGKLEAVQYKTQVVTHPEDAYSWGTNYYIKVRAGDNKYMHLKVFKSLLKPGGLLDFEDLVLTGYQVDKNKDDELTGF
21 | binds | Clone 214 (designed binder, His-tagged) MIPGGLSEAEPATPEIQEIVDKVKPQLEEKTGETYGKLEAVQYKTQVVIKIHHGSWEGTNYYIKVRAGDNKYMHLKVFKSLLFWQKQFYREDLVLTGYQVDKNKDDELTGF
22 | binds | Clone 193 (designed binder, His-tagged) MIPGGLSEAKPATPEIQEIVDKVKPQLEEKTGETYGKLEAVQYKTQVVLRHPVQDDDGTNYYIKVRAGDNKYMHLKVFKSLAGVNRWKWIEDLVLTGYQVDKNKDDELTGF
23 | binds | Clone 24 (designed binder, His-tagged) MIPGGLSEAKPATPEIQEIVDKVKPQLEEKTGETYGKLEAVQYKTQVVEEGTPEWAPGTNYYIKVRAGDNKYMHLKVFKSLWSDVLYNDFEDLVLTGYQVDKNKDDELTGF
24 | binds | Clone 225 (designed binder, His-tagged) MIPGGLSEAKPATPEIQEIVDKVKPQLEEKTGETYGKLEAVQYKTQVVDLHTPHYAPGTNYYIKVRAGDNKYMHLKVFKSLWNTLLEFGGEDLVLTGYQVDKNKDDELTGF
25 | binds | Clone 200 (designed binder, His-tagged) MIPGGLSEAKPATPEIQEIVDKVKPQLEEKTGETYGKLEAVQYKTQVVYGPHHQTYAGTNYYIKVRAGDNKYMHLKVFKSLYALHINRWPEDLVLTGYQVDKNKDDELTGF
26 | binds | Clone 188 (designed binder, His-tagged) MIPGGLSEAKPATPEIQEIVDKVKPQLEEKTGETYGKLEAVQYKTQVVPQENAPWVLGTNYYIKVRAGDNKYMHLKVFKSLNWDQPDTVLEDLVLTGYQVDKNKDDELTGF
27 | binds | Clone 199 (designed binder, His-tagged) MIPGGLSEAKPATPEIQEIVDKVKPQLEEKTGETYGKLEAVQYKTQVVRDHELVNQWGTNYYIKVRAGDNKYMHLKVFKSLFGQPVQGNTEDLVLTGYQVDKNKDDELTGF
28 | binds | Clone 191 (designed binder, His-tagged) MIPGGLSEAKPATPEIQEIVDKVKPQLEEKTGETYGKLEAVQYKTQVVLRYHFPEFHGTNYYIKVRAGDNKYMHLKVFKSLNHLAIHELPEDLVLTGYQVDKNKDDELTGF
29 | binds | Clone 210 (designed binder, His-tagged) MIPGGLSEAKPATPEIQEIVDKVKPQLEEKTGETYGKLEAVQYKTQVVWEYAGDYLEGTNYYIKVRAGDNKYMHLKVFKSLFHGIWWARVEDLVLTGYQVDKNKDDELTGF
30 | binds | Clone 195 (designed binder, His-tagged) MIPGGLSEAKPATPEIQEIVDKVKPQLEEKTGETYGKLEAVQYKTQVVVGVGRDFPKGTNYYIKVRAGDNKYMHLKVFKSLYIHYLKVNEEDLVLTGYQVDKNKDDELTGF
31 | binds | Clone 186 (designed binder, His-tagged) MIPGGLSEAKPATPEIQEIVDKVKPQLEEKTGETYGKLEAVQYKTQVVYDNVKEYPWGTNYYIKVRAGDNKYMHLKVFKSLKWYDPTIRPEDLVLTGYQVDKNKDDELTGF
32 | binds | Clone 198 (designed binder, His-tagged) MIPGGLSEAKPATPEIQEIVDKVKPQLEEKTGETYGKLEAVQYKTQVVSSPLHWELWHWSGTNYYIKVRAGDNKYMHLKVFKSLELNNKDQNDEDLVLTGYQVDKNKDDELTGF
33 | binds | Clone 206 (designed binder, His-tagged) MIPGGLSEAKPATPEIQEIVDKVKPQLEEKTGETYGKLEAVQYKTQVVRADVNVIWWGTNYYIKVRAGDNKYMHLKVFKSLPVKYKEILLEDLVLTGYQVDKNKDDELTGF
34 | binds | Clone 185 (designed binder, His-tagged) MIPGGLSEAKPATPEIQEIVDKVKPQLEEKTGETYGKLEAVQYKTQVVVVLFASGWEGTNYYIKVRAGDNKYMHLKVFKSLIQWRDHKPREDLVLTGYQVDKNKDDELTGF
35 | binds | Clone 254 (designed binder, His-tagged) MIPGGLSEAKPATPEIQEIVDKVKPQLEEKTGETYGKLEAVQYKTQVVISDVSVGWEGTNYYIKVRAGDNKYMHLKVFKSLRSGPAHVRREDLVLTGYQVDKNKDDELTGF
